Assay results taken from patent US8067220B2, “Alternative crystal form of monoacylglycerol lipase (MGLL)” (Janssen Pharmaceutica N.V., priority 2008, dated 2011).

Legend:
MGLL [1] = assay: Hydrolysis of coumarin arachidonate (C-A), apparent kcat/KM at [S]<<KM; assay type: biochemical, human; conditions: estimated; limited by solubility of C-A
Excerpt: (§1) A small fluorescent substrate, 4-methyl coumarin butyrate (4MC-B) was used to compare the activity of the engineered mutants to the activity of wt-MGLL (hMGLL 1-303) (SEQ ID NO: 3). The catalytic efficiency (kcat/KM) for the hydrolysis of the 4MC-B was similar for wt-MGLL (hMGLL 1-303) (SEQ ID NO: 3) and all MGLL mutants tested (Table 2). A larger more aliphatic fluorescent substrate, Coumarin Arachidonate (C-A), structurally more closely related to the MGLL natural substrate, 2-AG, was used to compare the activity of wt-MGLL (hMGLL 1-303) (SEQ ID NO: 3) to TEV protease cleaved mut-MGLL (hMGLL 1-303 L169S, L176S) (SEQ ID NO: 5).
(§2) The Michaelis-Menten parameters for the hydrolysis of 4-methylcoumarin butyrate (4MC-B) and coumarin arachidonate (C-A) substrate were determined using 4-5 nM of MGLL in 20 mM Pipes pH 7 and 150 mM NaCl at 37° C. The change in fluorescence due to substrate hydrolysis was monitored using excitation/emission wavelengths of 335/440 in a Safire II instrument from Tecan. The hyperbolic rates versus substrate concentration curves for the hydrolysis of 4MC-B were fit to the Michaelis-Menten equation using Excel.
The apparent kcat/Km ratio for the hydrolysis of C-A was determined at [S]<<KM. […] The kcat/KM values reported are the average from independent values determined from five substrate concentrations ranging from 700 to 40 nM.

MGLL [2] = assay: Michaelis-Menten kinetics, hydrolysis of 4-methylcoumarin butyrate (4MC-B); assay type: biochemical, human; conditions: substrate 4MC-B; 4-5 nM MGLL, 20 mM Pipes pH 7, 150 mM NaCl, 37° C.; average of 2 or 4 assays
Excerpt: as §1, §2

[3] = Size exclusion chromatography of protein purified in the absence of detergent; assay type: physicochemical
Protocol: A pilot purification of wt-MGLL (hMGLL 1-303) (SEQ ID NO: 3), performed in the complete absence of detergent, generated no protein (data not shown). A second purification of wt-MGLL (hMGLL 1-303) (SEQ ID NO: 3) was done with detergent in the lysis buffer only. Frozen cell pellets for wt-MGLL (hMGLL 1-303) (SEQ ID NO: 3) were thawed, resuspended, and lysed in Bugbuster® lysis buffer for 1 hour at 4° C. Bugbuster® lysis buffer is a proprietary lysis buffer from […] that contains detergent. The lysate was clarified by centrifugation at 40,000×g for 1 hr. No detergent was added at this point or during the rest of the purification. From this point forward, the purification protocol and buffers were the same as described below for mut-MGLL. An average of 2.2 mg of wt-MGLL (hMGLL 1-303) (SEQ ID NO: 3) per liter of cell culture was obtained.
Mutant MGLL (mut-MGLL) constructs were purified in the absence of detergent. […] Fractions were analysed by SDS-PAGE. […] Purification yields were determined by Bradford assay using the protein assay kit from BioRad according to manufacturer's instruction with BSA as a standard (Bradford 1976).

MGLL [4] = assay: Thermofluor thermal stability assay; assay type: physicochemical, human; conditions: Thermofluor, 1,8-ANS; for midpoint of the melting transition (Tm): 0.05 mg/ml protein, Pipes pH 7
Excerpt: (§3) Thermofluor® assays detect small changes in the intrinsic melting temperature of proteins based on binding of ligands. Compounds that interact preferentially with the native form of the protein will increase the Tm, the temperature at which half of the protein is unfolded (Pantoliano et al. 2001). The technique monitors changes in the fluorescent intensity of dyes such as 1-anilinonaphthalene-8-sulfonic acid (1,8-ANS). The fluorescent dyes are quenched in aqueous environments but increase in fluorescence on binding to the hydrophobic core of denatured proteins.
as §3, with “The Thermofluor®” for “Thermofluor®”, “assay is a powerful tool to screen for small molecule inhibitors interacting with a protein's active site or allosteric site. The assay detects” for “assays detect”
Thermofluor® assays were conducted to characterize wt-MGLL (hMGLL 1-303) (SEQ ID NO: 3) and mut-MGLL (hMGLL 1-303 L169S, L176S) and evaluate if the MGLL mutants could be used for high-throughput screening using Thermofluor®. Three microliters of protein at a concentration of 0.05 mg/ml in 50 mM Pipes pH 7, 200 mM NaCl, 100 μM 1,8-ANS, and 0.001% Tween was added to pre-dispensed compound plates. Wells were overlaid with silicone oil (1 μL, Fluka, type DC 200) to prevent evaporation. Final compound concentrations varied from 150 to 0.15 μM. Assay plates were heated at a rate of 1° C./min for all experiments over a temperature range sufficient to measure protein unfolding. Fluorescence was measured by continuous illumination with UV light (Hamamatsu LC6) supplied via fiber optic and filtered through a custom band-pass filter (380-400 nm; >6 OD cutoff). Fluorescence emission was detected by measuring light intensity using a CCD camera (Sensys, Roper Scientific) filtered to detect emission at 500±25 nm, resulting in simultaneous and independent readings of all 384 wells. One or more images were collected at each temperature, and the sum of the pixel intensity in a given area of the assay plate was recorded vs temperature, and fit to standard equations to yield the Tm.

[5] = Circular dichroism (CD) structural analysis; assay type: physicochemical; conditions: 5 μM protein, 10 mM cacodylic acid pH 7, 140 mM NaCl, 200 to 260 nm
Protocol: Circular dichroism experiments were performed on a Circular Dichroism Spectrometer Model 202 from Aviv Instruments Inc. The CD scans of wt-MGLL (hMGLL 1-303) (SEQ ID NO: 3) and TEV protease cleaved mut-MGLL (hMGLL 1-303 L169S, L176S) (SEQ ID NO: 5) (5 μM protein in 10 mM cacodylic acid pH 7 and 140 mM NaCl) were measured from 200 to 260 nm. Temperature melts were monitored at 210 nm.

Molecule	Km (MGLL [1]) [µM]	Kcat (MGLL [2]) [s⁻¹]	Km (MGLL [2]) [µM]	aggregation by size exclusion [3] [%]	quality of Thermofluor melting transition (MGLL [4])	midpoint of the melting transition (Tm) (MGLL [4]) [°C]	monomer by size exclusion [3] [%]	CD scan compared with wt-MGLL purified in the presence of detergent [5]
CCCCC/C=C/C/C=C\C/C=C/C/C=C/CCCC(=O)Oc1ccc2ccc(=O)oc2c1 [C-A, Coumarin Arachidonate]	> 30	–	–	–	–	–	–	–
wt-MGLL.1-303: wild-type human MGLL isoform 2, amino acids 1-303, with N-terminal His tag and TEV site (protein, N-terminal His tag and TEV site, wild-type human MGLL isoform 2, amino acids 1-303, with N-terminal His tag and TEV site) MVDHHHHHHENLYFQGMPEESSPRRTPQSIPYQDLPHLVNADGQYLFCRYWKPTGTPKALIFVSHGAGEHSGRYEELARMLMGLDLLVFAHDHVGHGQSEGERMVVSDFHVFVRDVLQHVDSMQKDYPGLPVFLLGHSMGGAIAILTAAERPGHFAGMVLISPLVLANPESATTFKVLAAKVLNLVLPNLSLGPIDSSVLSRNKTEVDIYNSDPLICRAGLKVCFGIQLLNAVSRVERALPKLTVPFLLLQGSADRLCDSKGAYLLMELAKSQDKTLKIYEGAYHVLHKELPEVTNSVFHEINMWVSQRTATAGTASPP	–	1.13	162	100	very poor transition	58	–	–
mut-MGLL. 1-303, L169S, L176S: human MGLL 1-303 with cap-domain mutations L169S, L176S (protein) GMPEESSPRRTPQSIPYQDLPHLVNADGQYLFCRYWKPTGTPKALIFVSHGAGEHSGRYEELARMLMGLDLLVFAHDHVGHGQSEGERMVVSDFHVFVRDVLQHVDSMQKDYPGLPVFLLGHSMGGAIAILTAAERPGHFAGMVLISPLVLANPESATTFKVLAAKVLNSVLPNLSSGPIDSSVLSRNKTEVDIYNSDPLICRAGLKVCFGIQLLNAVSRVERALPKLTVPFLLLQGSADRLCDSKGAYLLMELAKSQDKTLKIYEGAYHVLHKELPEVTNSVFHEINMWVSQRTATAGTASPP	–	0.8	136	–	strong transition	56.7	90	similar
